The results in this text go back to publication PMC10063552, “Utilizing genetic code expansion to modify N-TIMP2 specificity towards MMP-2, MMP-9, and MMP-14” (Scientific Reports, 2023).

Holding throughout (test): enzyme inhibition assay (cleavage of a chromogenic substrate, fit to Morrison's tight binding equation); MMP-2ACT (0.6 nM), MMP-9CAT (3 nM) or MMP-14CAT (1 nM) incubated with 0-25 nM N-TIMP2 variant in 50 mM HEPES, 10 mM CaCl2, 0.05% Brij-35, 1 mM DTNB, pH 7.5, 1 h at 37 °C; then 100 µM chromogenic substrate, absorbance at 412 nm at 37 °C; Ki from three independent experiments
What all share (conditions): both partners purified

The target of test [1] is T1, human MMP-14 catalytic domain (MMP-14CAT) (human, UniProt P50281 112-292).
T1 construct: Matrix metalloproteinase-14 (MMP-14), human, catalytic domain, residues 112-292

In test [2] the target is T2, human MMP-9 catalytic domain (MMP-9CAT) (human, UniProt P14780 107-215; P14780 391-443).
T2 construct: Matrix metalloproteinase-9 (MMP-9), human, catalytic domain, first stretch, residues 107-215; Matrix metalloproteinase-9 (MMP-9), human, catalytic domain, second stretch, residues 391-443 (residues 216-390 left out); no linker between the two stretches is stated
T2 chain (looked up): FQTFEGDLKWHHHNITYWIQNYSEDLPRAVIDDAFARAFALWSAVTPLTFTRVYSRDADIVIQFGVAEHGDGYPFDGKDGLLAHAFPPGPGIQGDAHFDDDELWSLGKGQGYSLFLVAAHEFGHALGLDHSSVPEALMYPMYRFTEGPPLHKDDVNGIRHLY

Test [3] concerns the target T3, activated MMP-2 (MMP-2ACT) (human, APMA-activated in vitro (propeptide 30-109 removed); catalytic Zn2+, structural Zn2+ and Ca2+ ions. Limits are not printed: full-length active chain taken from the UniProt feature. The tables label it).
T3 chain: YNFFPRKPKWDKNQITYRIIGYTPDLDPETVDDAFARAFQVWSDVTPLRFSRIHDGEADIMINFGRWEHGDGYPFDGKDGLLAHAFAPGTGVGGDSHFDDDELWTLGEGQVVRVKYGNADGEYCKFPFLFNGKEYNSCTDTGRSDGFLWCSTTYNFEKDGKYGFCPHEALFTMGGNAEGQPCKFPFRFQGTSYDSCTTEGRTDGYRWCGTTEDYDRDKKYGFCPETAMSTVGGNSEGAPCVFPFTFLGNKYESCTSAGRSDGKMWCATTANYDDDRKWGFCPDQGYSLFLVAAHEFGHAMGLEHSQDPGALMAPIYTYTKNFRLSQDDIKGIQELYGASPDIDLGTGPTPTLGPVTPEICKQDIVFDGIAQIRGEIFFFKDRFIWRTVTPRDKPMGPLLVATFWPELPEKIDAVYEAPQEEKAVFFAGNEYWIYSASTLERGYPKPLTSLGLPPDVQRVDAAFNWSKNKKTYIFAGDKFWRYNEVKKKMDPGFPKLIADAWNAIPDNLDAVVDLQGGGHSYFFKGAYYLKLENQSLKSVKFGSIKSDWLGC

B1: N-terminal domain of TIMP2 (N-TIMP2), wild type (domain or fragment, human, UniProt P16035 27-153, looked up)
chain: CSCSPVHPQQAFCNADVVIRAKAVSEKEVDSGNDIYGNPIKRIQYEIKQIKMFKGPEKDIEFIYTAPSSAVCGVSLDVGGKKEYLIAGKAEGDGKMHITLCDFIVPWDTLSTTQKKSLNHRYQMGCE
notes: numbers count on: the mature protein (Cys1 is the N-terminal residue); Cloned into the pMECS vector; also called wild-type N-TIMP2; parental N-TIMP2; source: E. coli WK6, periplasmic extract, purified (Ni-NTA)
Take B1: the inhibition constant Ki in test [1] was found to be 0.711 nM; in test [2], 0.322 nM; in test [3], 0.233 nM.

As usually defined, the Ki is the equilibrium dissociation constant of an inhibitor or competing ligand from its target. Low readings indicate a stronger hold on the target, high ones a looser hold on the target.
